The source of these data is paper PMC8177701 (Science Advances, 2021).

The assay has as its target T1, RsmA (E. coli, UniProt P06992 1-273).
T1 sequence (looked up): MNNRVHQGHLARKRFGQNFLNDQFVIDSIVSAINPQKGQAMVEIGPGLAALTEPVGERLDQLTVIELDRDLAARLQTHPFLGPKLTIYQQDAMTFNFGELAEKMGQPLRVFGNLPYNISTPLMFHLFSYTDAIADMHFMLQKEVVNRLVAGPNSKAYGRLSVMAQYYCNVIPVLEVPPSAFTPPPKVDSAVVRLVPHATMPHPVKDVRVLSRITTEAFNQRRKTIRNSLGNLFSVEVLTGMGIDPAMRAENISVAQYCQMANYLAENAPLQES
In words: NMR titration.

B1: RimP (natural protein)
chain: not shown
B1 yielded a Ka below 10000 M⁻¹.
